Experimental data: the RNAGym collection of RNA variant scans (doi:10.1073/pnas.2313332121)
Fewer inactive variants are shown than the library holds.

B1: TPR 5TU (parent)
chain: GGAUCUUCUCGAUCUAACAAAAAAGACAAAUCUGCCACAAAGCUUGAGAGCAUCUUCGGAUGCAGAGGCGGCAGCCUUCGGUGGCGCGAUAGCGCCAACGUUCUCAACUAUGACACGCAAAACGCGUGCUCCGUUGAAUGGAGUUUAUCAUG

Variants of: B1
Assay: polymerase ribozyme fitness, log enrichment relative to wild type (log ratio); higher = more active; in vitro selection for triplet polymerase activity
Procedure, shortened: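 PCR was used to build mutant libraries for each subunit of a heterodimeric triplet polymerase ribozyme, which were then transcribed. A single in vitro selection round, in triplicate, used a frozen incubation at −7 °C and recovered extended constructs by gel excision, streptavidin beads and RT-PCR. Fitness is the logarithm of genotype enrichment relative to wild-type enrichment, averaged over replicates with inverse-variance weights. The logarithm is base 2, and after Illumina sequencing only genotypes with ≥10 input reads and ≥1 read per output were kept.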

Point of comparison: C18U A22G A49C G86A C131G, “polymerase ribozyme fitness (log ratio)” value -4.14. Against it:
- G48A A52C C85U — higher, -2.93
- G50C G81A G86U C87A G136U — lower, ≤ -4.2
- A47G U61A — higher, -1.41
- A3U C87U — higher, -0.956
- U82A G124A — higher, 0.114
- U6A C93A — higher, -2.58
- A37G A66U C96A C103U — lower, ≤ -4.2
- G62A C87G U90A C96U C99U U148G — lower, ≤ -4.2
- A21U U33G A122U U144G — higher, -3.94
- C14A A16G A20G U56A U82G A106G — higher, -3.04
- C57U G84A A98U C129U A147U — higher, -1.13
- A29G A41C — higher, -3.63
- C27U C85U — higher, -2.83
- U6G G48U G58A C76G U82C C93U A122C A138G A142G — lower, ≤ -4.2
- U55G G62A G92U C96A — higher, -3.44
- U56A G59A C96U — higher, 0.392
- A3G A147U — higher, 1.09
- G84A C118U G141A — higher, 0.213
- C27G C87U — within 0.2 log units, -3.97
- A41C C85G A113C — within 0.2 log units, -4.19
- C87A C93G C114U G141C — lower, ≤ -4.2
- C8U A24C C36U G48A C95G C105U U145A — lower, ≤ -4.2
- A41U G50U A64U C118G A150C — lower, ≤ -4.2
- A28G G58U — lower, ≤ -4.2
- A29C C35A — higher, -3.91
- A30C C85U — within 0.2 log units, -4.09
- C32G A91C U139G — lower, ≤ -4.2
- U44A U53G C105U C116G G141C — lower, ≤ -4.2
- A41G U44A U61C C75U A142C — lower, ≤ -4.2
- G80C C96U — higher, -3.79
- U61A C79G U82C C132G — lower, ≤ -4.2
- C27G G48C G80A G81A A113G C118A C132U G136C A150G — lower, ≤ -4.2
- C54A C99U — higher, -1.85
- U53G U55A U148C — lower, ≤ -4.2
- U6A C87U — higher, -0.846
- U31A G59A G84A U102G G128C A142C — lower, ≤ -4.2
- C14A G62A C85A G141A — higher, -3.57
- C5G G50A U61G G62A A66C C96A U146A — lower, ≤ -4.2
- G58A G59A A122G U148C — higher, -2.64
- G92C C103A — higher, -3.4
- A122U U135C A137G — higher, -3.91
- U56G C103A A122U U146A — higher, -2.78
- G50A G83C C93G A97C C132G A137G G140U — lower, ≤ -4.2
- A26U C43A A49G G58C C93U G112A — lower, ≤ -4.2
- G92U C108U C125G G140C — lower, ≤ -4.2
- A41G G42U A66U G74A U151G — lower, ≤ -4.2
- G58U G88C U130G — lower, ≤ -4.2
- C75U C93U G143U — higher, -3.61
- A49C C75U C76A U77G G81U C87U C93U G94A C131G U134G — lower, ≤ -4.2
- G25A A64G G88A — lower, ≤ -4.2
- A16U A64U A66U G94A C108U A150G — lower, ≤ -4.2
- U56A U90C U144G — higher, -3.91
- A29G C36A A47C G50C C76A C85U C118A A121U U135G — lower, ≤ -4.2
- C57G G83U — higher, -0.732
- C93U U135C — higher, -2.76
- U6G C8G A47C G59U A91C C96G C132G G133A — lower, ≤ -4.2
- U56G U135A — higher, -1.84
- A41U A89U A91C — within 0.2 log units, -3.97
- A26C U144C — higher, -2.23
- A24U A41G U53G G124C C131U — higher, -1.4
- A17C G62U C93G — higher, -3.31
- A52C C96A — higher, -1.55
- U33A C75G C76A A142G — lower, ≤ -4.2
- C10G C85U A91C C105A — lower, ≤ -4.2
- A17G G86A — higher, -0.889
- G58U C96A G126C — higher, 0.641
- C5G U15G A52G — higher, -1.06
- A39G G48A C54A G88A C125U U134G U145C — lower, ≤ -4.2
- C85G A97G A150U — higher, -2.03
- G84U A121C — higher, -1.74
- G42C A60G C75G C105U A122G — within 0.2 log units, -4.18
- G140A U144A — higher, -3.68
- A12G C36A U55G G94A G141C U148G — lower, ≤ -4.2
- U15C A47C C54U A89U C95G — higher, -2.01
- G42C C95A — lower, ≤ -4.2
- A24U A41U G86U — higher, -3.62
- G117U A137G — higher, -1.34
- C93G A142C — within 0.2 log units, -4.02
- A16G G46U — higher, -1.19
- A66G U111C — lower, ≤ -4.2
- G58U A64G A91G A113U U135A — lower, ≤ -4.2
- C54U A91U U102G — lower, ≤ -4.2
- A21C A26C G71C C76G C87A C108U — lower, ≤ -4.2
- A22C C85G U109A — higher, -3.43
- G88U C99U — within 0.2 log units, -4.12
- C87G U139A — lower, ≤ -4.2
- C38A A73G C79A C114G G124U G140U U148G — lower, ≤ -4.2
- U56A G81C A120C G141A — higher, 0.526
- C32G C87U A107U A113C C116A — lower, ≤ -4.2
- U13C C14U U77G G84U U145G U148A — lower, ≤ -4.2
- A37G U77A C87A C99U G140C A147U — lower, ≤ -4.2
- A3G C63U A73G G86U U135A — higher, -3.75
- A21G U139A — higher, -3.9
- A21C A26U A60C G70C G81A G84U G92A A115U — lower, ≤ -4.2
- U13A C93A — higher, -3.28
- A30G A91G — lower, ≤ -4.2
- C93U C116U — higher, -0.9
- U4A U15G C87U — higher, 0.183
- C76U C87G C125G — lower, ≤ -4.2
- C79G U101G U109G U135C U148A — lower, ≤ -4.2
- C85U G94A G152C — higher, -3.09
- A40C U44A G59A C93A U109A — lower, ≤ -4.2
- C8U A20U G46C G59U A60C C63U G83U C87U A97U U145A — lower, ≤ -4.2
- A3U A16U C54U U55A C85U A98C C99U C129G G152U — lower, ≤ -4.2
- C38A U53A C63U G80A C95A — lower, ≤ -4.2
- A22U C32G U134C — lower, ≤ -4.2
- C93A A142U — higher, -3.16
- A20C U101G C149U — higher, -1.64
- U6G C8A G48A U56G C75U G80C G83U G92U C93A C99U G100U — lower, ≤ -4.2
- A26U A49G C57A G88U G92A G100A A106U C125U — lower, ≤ -4.2
- A73U C103G — lower, ≤ -4.2
- U9C A49G A106G C116U G136A A137C G143A U144C U148G — lower, ≤ -4.2
- G48U G59C G81A A97U — higher, -1.88
- A3G C5G G84A G88A — higher, -3.09
- U55A G59C G94U A107C — lower, ≤ -4.2
- A21U U45G U55A A91U C125U C131G — lower, ≤ -4.2
- A21G C27A — higher, -3.89
- A19U C95U — higher, -0.543
- A12U A20U A21C C87G A142G — lower, ≤ -4.2
- G11U C103G C123G — higher, -2.44
- A49C G70A C75G C93G A97C C116G C118G — lower, ≤ -4.2
- C14G C85U C96U A113C A122U G143A — lower, ≤ -4.2
- C93U A110G — higher, -3.25
- U55G C57U C63G A66U G94C U104G — lower, ≤ -4.2
- C32G C35A — higher, -3.92
- G50A U77A A106U A113G A121U C131U — lower, ≤ -4.2
- C63G A73G — higher, -0.51
- U31G G59U C69A U134G G136U — higher, -3.84
- U55A G68C A91G A107C — lower, ≤ -4.2
- C8G A12G G42C U82A C95U C108U G136A G143A A150U — lower, ≤ -4.2
- A21C G83C C87A G92U C116G — higher, -1.27
- C14G A20U G50A U56A G65U C93A C131A — lower, ≤ -4.2
- A24C G81U G83C A110U C114G — lower, ≤ -4.2
- C14U G58C C85U A89G G136A — higher, -3.44
- A21G C87U G140U — higher, -3.6
- C18G U45C C96U C116A U130C — lower, ≤ -4.2
- A49G C85G C93U — lower, ≤ -4.2
- U53A G94A — higher, -1.61
- A12G A24G C35A U44G G50C G71C G124A — lower, ≤ -4.2
- G81C G84U G126C — higher, -2.04
- A20C G136A — higher, -0.55
- A17U G67C A91C C95U G100U A106U — lower, ≤ -4.2
- C27U G50U U55A C96A A110G G133U — higher, -3.94
- C116U U130C — higher, 1.13
- A30U U82A C85A U104A — lower, ≤ -4.2
- U13G G136A A137G C149U — higher, -3.07
- U13G G83C C99G C118G C123U A137G — lower, ≤ -4.2
- G50A G59U G71U A73C C95A C108G — lower, ≤ -4.2
- C103A A115U — higher, -3.09
- U13G A26U C96G A120G — lower, ≤ -4.2
- U33C C63U C99U A142G — lower, ≤ -4.2
- C36A G50C U53A U56A C93U A115U — lower, ≤ -4.2
- C85G G86A — higher, -3.83
- U55A A66U G74A C75A C79G G88C C95G A137U — lower, ≤ -4.2
- U56A C95U C99U C125G — higher, -2.57
- A91G C93U — higher, -3.88
- A41C G50A G74A U82G C95U A107C — lower, ≤ -4.2
- U6G C69U G84A A106C — higher, -2.47
- C54U C57U C79A C85U C93G A107G C123G — lower, ≤ -4.2
- A121C C125U G143U — higher, -2.41
- U55G G62A C116G — higher, -1.02
- G46U G68C G94C — lower, ≤ -4.2
- A37C C85U G88C A137U — lower, ≤ -4.2
- G25C A49C C93G — lower, ≤ -4.2
- U56A G141A — higher, 0.775
- A28C C43U C76G A110G A138U — lower, ≤ -4.2
